Reference: patent US20070148201A1 (Pieris, published 2007)

T1: RNaseB (UniProt P61823 27-150)
T1 construct: also called unrelated control protein RNaseB
T1 sequence (looked up): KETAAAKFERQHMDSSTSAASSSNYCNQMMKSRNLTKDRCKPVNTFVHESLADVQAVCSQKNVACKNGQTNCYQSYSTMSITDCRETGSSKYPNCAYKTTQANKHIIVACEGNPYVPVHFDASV

T2: extracellular domain of human CD154 (human, UniProt P29965 47-261)
T2 construct: extracellular domain; Colony screening: conjugate with digoxigenin
T2 sequence (looked up): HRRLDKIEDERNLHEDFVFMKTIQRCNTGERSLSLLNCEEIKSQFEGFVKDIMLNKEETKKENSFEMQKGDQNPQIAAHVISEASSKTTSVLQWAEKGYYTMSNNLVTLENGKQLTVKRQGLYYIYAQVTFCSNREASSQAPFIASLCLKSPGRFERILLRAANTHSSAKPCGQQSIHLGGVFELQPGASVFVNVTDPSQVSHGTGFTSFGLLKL


Tests used:
RNaseB [1] = target: T1, RNaseB; test: ELISA: BBP mutein coated on the plate, digoxigenin-conjugated RNaseB titrated 0-2000 nM, detected with anti-digoxigenin Fab-alkaline phosphatase, fluorescence (Example 27)
Protocol: (§1) After washing five times with 100 μl PBST/0.05 per well employing an automated ELISA plate washer, the wells were filled with 100 μl PBST containing 3% w/v non-fat dry milk powder (Vitalia), in order to saturate unspecific binding sites and incubated for one hour at room temperature. After blocking, the microtiter plate was washed two times with 100 μl PBST/0.05 as described above.
(§2) Then a dilution series of conjugates of digoxigenin and either the prescribed protein target CD4-VD1 or the unrelated control protein RNaseB, both produced as described in Example 25, was prepared in PBST starting from 2000 nM concentration and incubated for 1 h at room temperature. Subsequently, plates were washed again five times like above and 20 μl of an anti-digoxigenin-Fab-fragment-alkaline phosphatase-conjugate (Roche), diluted 1:1000 in PBST was added to each well and incubated for 1 hour at room temperature. Plates were washed again five times as described above and 20 μl of the fluorogenic substrate AttoPhos (Roche; prepared as described by the manufacturer) was added to detect bound CD4-VD1 by means of the attached digoxigenin groups. After 10 minutes at room temperature fluorescence was excited at a wavelength of 430 nm (±17.5 nm) and measured at 535 nm (÷12.5 nm) in a GENiosPlus plate reader.

[2] = target: fusion construct of the CD4 V-domain and CD4 D1-domain of the human CD4 coreceptor (amino acids 1-184) with … (human, UniProt P01730 26-209); test: ELISA, mutein coated on plate, digoxigenin-conjugated CD4-VD1 titrated from 2000 nM, anti-digoxigenin Fab-AP detection, apparent KD from curve fit
Protocol: as §1, §2
The resulting binding curves were fitted by non-linear least squares regression as described in Example 8 and are depicted in FIG. 14 and FIG. 15. The values obtained for the apparent dissociation constants of the complexes between the BBP muteins CD4-2C3-K20, CD4-2C3-N22, CD4-2G3-H22, CD4-2G3-L22, CD4-7B4-K21, CD4-7B4-K23, and CD4-7B4-N14 and the prescribed target protein CD4-VD1 as well as for the complexes between the BBP muteins and the control protein RNaseB are summarized in Table 11.

[3] = target: T2, extracellular domain of human CD154; test: ELISA, CD154 coated on plate, mutein titrated from 2000 nM, anti-Strep-tag II-HRP detection, apparent KD from curve fit
Protocol: as §1
Then a dilution series of the muteins from Example 16 in SA-buffer was prepared in PBST starting from 2000 nM concentration and incubated for 1 h at room temperature. Subsequently, plates were washed again five times like above and 20 μl of an anti-Strep-tag® II monoclonal antibody-HRP-conjugate (IBA), diluted 1:1000 in PBST was added to each well and incubated for 1 hour at room temperature. Plates were again washed five times as described above and 20 μl of the fluorogenic HRP-substrate QuantaBlu™ (diluted as described by the manufacturer) was added to detect bound BBP muteins by means of the attached anti-Strep-tag® II monoclonal antibody-HRP-conjugate. After 10 minutes at room temperature fluorescence was excited at a wavelength of 320 nm (±12.5 nm) and measured at 430 nm (±17.5 nm) in a GENiosPlus plate reader.
The resulting binding curves were fitted by non-linear least squares regression as described in Example 8 and are depicted in FIG. 11. […]

BSA = target: T3, BSA (UniProt P02769 25-607); test: ELISA: BSA coated on the plate as control, BBP mutein titrated 0-2000 nM, detected with anti-Strep-tag II antibody-HRP, fluorescence (Example 17)
T3 construct: Control protein coated on the ELISA plate; also called unrelated control protein BSA
T3 sequence (P02769 25-607 limits assumed): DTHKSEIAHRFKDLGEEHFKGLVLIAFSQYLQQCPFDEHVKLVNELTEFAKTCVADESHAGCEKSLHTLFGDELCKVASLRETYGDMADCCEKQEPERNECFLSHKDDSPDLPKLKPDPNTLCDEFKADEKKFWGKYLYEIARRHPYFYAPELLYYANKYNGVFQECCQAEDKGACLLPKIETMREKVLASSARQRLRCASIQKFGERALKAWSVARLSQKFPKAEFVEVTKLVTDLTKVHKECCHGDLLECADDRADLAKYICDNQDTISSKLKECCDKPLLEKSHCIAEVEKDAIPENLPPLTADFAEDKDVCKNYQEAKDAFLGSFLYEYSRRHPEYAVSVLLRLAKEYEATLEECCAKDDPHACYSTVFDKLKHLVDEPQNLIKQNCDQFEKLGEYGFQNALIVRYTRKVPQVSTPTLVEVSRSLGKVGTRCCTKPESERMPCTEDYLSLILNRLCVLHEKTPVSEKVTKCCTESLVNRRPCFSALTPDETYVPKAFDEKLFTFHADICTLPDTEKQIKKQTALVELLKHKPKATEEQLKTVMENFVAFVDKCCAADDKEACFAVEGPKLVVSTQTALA

RNaseB [4] = target: T1, RNaseB; test: ELISA, RNaseB coated on plate, anti-T7-HRP detection
Protocol: (§3) Afterwards, the wells were washed and blocked as described in Example 8.
(§4) Then, a dilution series of the BBP muteins from Example 11 in SA-buffer was prepared in PBST starting from 1000 nM concentration and incubated for 1 h at room temperature. Subsequently, plates were washed again five times, anti-T7 monoclonal antibody-HRP-conjugate was added and incubated for 1 hour at room temperature followed by washing and addition of fluorogenic HRP-substrate QuantaBlu™ as described in Example 8. After 10 minutes at room temperature fluorescence was excited at a wavelength of 320 nm (±12.5 nm) and measured at 430 nm (±17.5 nm) in a GENiosPlus plate reader.

type I horse ferritin [5] = target: T4, type I horse ferritin (horse, UniProt P02791 2-175; Q8MIP0 2-182, limits assumed); test: ELISA, ferritin coated on plate, mutein titrated from 1000 nM, anti-T7-HRP detection, apparent KD from curve fit
T4 construct: the natural protein is a shell of light and heavy chains
T4 sequence (P02791 2-175 limits assumed, chain 1 of 2): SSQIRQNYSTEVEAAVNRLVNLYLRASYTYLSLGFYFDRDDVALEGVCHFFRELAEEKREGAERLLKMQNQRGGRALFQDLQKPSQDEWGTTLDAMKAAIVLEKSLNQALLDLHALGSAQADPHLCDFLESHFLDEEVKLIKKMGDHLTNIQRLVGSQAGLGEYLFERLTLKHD
T4 sequence (Q8MIP0 2-182 limits assumed, chain 2 of 2): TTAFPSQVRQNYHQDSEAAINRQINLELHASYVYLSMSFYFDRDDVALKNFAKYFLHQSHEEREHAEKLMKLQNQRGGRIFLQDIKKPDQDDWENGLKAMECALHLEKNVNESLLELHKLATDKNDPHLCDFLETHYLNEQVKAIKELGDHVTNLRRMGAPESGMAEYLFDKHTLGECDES
Protocol: as §3, §4
The resulting binding curves were fitted by non-linear least squares regression as described in Example 8 and are depicted in FIG. 8. The values obtained for the apparent dissociation constants of the complexes between the BBP muteins and the prescribed target ferritin are summarized in Table 5.

type I horse ferritin [6] = target: T4, type I horse ferritin; test: high-throughput ELISA screening, crude cell extract, ferritin or aldolase coated on plate, anti-T7-HRP detection; Fer-N22 is one of the clones taken on from these 14
Protocol: (§5) For the detection of binding, these cell extracts were tested for their reactivity on the prescribed target type I horse ferri tin as well as the unrelated control protein aldolase in ELISA experiments. Therefore, wells of black Fluotrac 600 ELISA plates (Greiner; 384 well) were coated overnight with 20 μl of a solution of ferritin (Sigma) or aldolase (Roche) at 4° C., each at a concentration of 20 μg/ml in PBS. Plates were washed five times with 100 μl PBST/0.05 per well with an automated ELISA plate washer (Molecular Devices) leaving a residual volume of 10 μl of the washing buffer in each well after the last washing step. Residual binding sites were blocked by incubation with 100 μl PBST/0.05 containing 2% w/v BSA for 2 h at room temperature. Afterwards, plates were again washed five times as described above.
(§6) For complex formation between the BBP muteins and the immobilized proteins, the wells were incubated with 10 μl of the blocked cell extract from above for 1 hour at room temperature. […] After 60 minutes at room temperature fluorescence was excited at a wavelength of 320 nm (±12.5 nm) and measured at 430 nm (±17.5 nm) in a GENiosPlus plate reader (Tecan).

type I horse ferritin [7] = target: T4, type I horse ferritin; test: high-throughput ELISA screening, crude cell extract, ferritin or aldolase coated on plate, anti-T7-HRP detection; Fer-I21 is one of the clones taken on from these 14
Protocol: as §5, §6

Binder	binding result (RNaseB [1])	Kd [2]	other results
BBP mutein CD4-2G3-L22 (designed binder) DVYHDGACPEVKPVDNFDWSQYHGKWWEVAKYPNIAELGGKCGWAEYTPEGKSVKVSNYHVINWNEMFIEGTAYPVGDSKIGKISHSLTKVGQTKENVFNVLSTDNKNYIIGYYCQYSERAKGHLDFVWVLSRSMVLTGEAKTAVENYLIGSPVVDSQKLVYSDFSEAACKVNN	no binding (tested: 2000 nM)	200 nM	–
BBP mutein CD4-2C3-N22 (designed binder) DVYHDGACPEVKPVDNFDWSQYHGKWWEVAKYPNAKESPGKCGWAEYTPEGKSVKVSNYHVIQRLEGFIEGTAYPVGDSKIGKIYHSLTTWGLTKENVFNVLSTDNKNYIIGYYCGYVEKSKGHPDFVWVLSRSMVLTGEAKTAVENYLIGSPVVDSQKLVYSDFSEAACKVNN	no binding (tested: 2000 nM)	185 nM	–
BBP mutein CD154-13-10-4 (designed binder) DVYHDGACPEVKPVDNFDWSQYHGKWWEVAKYPNSHETGGKCGWAEYTPEGKSVKVSNYHVITPHERFIEGTAYPVGDSKIGKIYHSLTWIGTTKENVFNVLSTDNKNYIIGYYCSYSEAGKGHQDFVWVLSRSMVLTGEAKTAVENYLIGSPVVDSQKLVYSDFSEAACKVNN	–	–	Kd [3]: 174 nM; binding result (BSA): no binding (tested: 2000 nM)
BBP mutein CD4-2C3-K20 (designed binder) DVYHDGACPEVKPVDNFDWSQYHGKWWEVAKYPNTSEHSGKCGWAEYTPEGKSVKVSNYHVIKKKERFIEGTAYSAGDSKIGKIYHSLTSVGKTKENVFNVLSTDNKNYIIGYYCSYKEKTKGHGDFVWVLSRSMVLTGEAKTAVENYLIGSPVVDSQKLVYSDFSEAACKVNN	no binding (tested: 2000 nM)	136 nM	–
BBP mutein CD154-13-10-1 (designed binder) DVYHDGACPEVKPVDNFDWSQYHGKWWEVAKYPNQIEQGGKCGWAEYTPEGKSVKVSNYHVIYASEDFIEGTAYPVGDSKIGKIYHSLTSSGVTKENVFNVLSTDNKNYIIGYYCGYREAPKGHMDFVWVLSRSMVLTGEAKTAVENYLIGSPVVDSQKLVYSDFSEAACKVNN	–	–	Kd [3]: 89 nM; binding result (BSA): no binding (tested: 2000 nM)
BBP mutein Fer-N22 (designed binder, Tested as expressed from pBBP47: C-terminal T7 tag followed by Strep-tag II) DVYHDGACPEVKPVDNFDWSQYHGKWWEVAKYPNGGESPGKCGWAEYTPEGKSVKVSNYHVIKKRERFIEGTAYPVGDSKIGKICHSLTWSGLTKENVFNVLSTDNKNYIIGYYCKYKERKKGHGDFVWVLSRSMVLTGEAKTAVENYLIGSPVVDSQKLVYSDFSEAACKVNN	–	–	binding result (RNaseB [4]): no binding (tested: dilution series starting from 1000 nM); Kd (type I horse ferritin [5]): 45 nM; signal-to-control ratio (ferritin against aldolase) (type I horse ferritin [6]): > 5
BBP mutein CD4-2G3-H22 (designed binder) DVYHDGACPEVKPVDNFDWSQYHGKWWEVAKYPNMTEVKGKCGWAEYTPEGKSVKVSNYHVIREKEWFIEGTAYPVGDSKIGKIYHSLTISGLTKENVFNVLSTDDKNYIIGYYCKYMELWKGHRDFVWVLSRSMVLTGEAKTAVENYLIGSPVVDSQKLVYSDFSEAACKVNN	no binding (tested: 2000 nM)	105 nM	–
BBP mutein Fer-I21 (designed binder, Tested as expressed from pBBP47: C-terminal T7 tag followed by Strep-tag II) DVYHDGACPEVKPVDNFDWSQYHGKWWEVAKYPNQKEKWGKCGWAEYTPEGKSVKVSNYHVIKRPERFIEGTAYPVGDSKIGKIYHSLTRLGKTKENVFNVLSTDNKNYIIGYYCLYPEGWKGHKDFVWVLSRSMVLTGEAKTAVENYLIGSPVVDSQKLVYSDFSEAACKVNN	–	–	binding result (RNaseB [4]): no binding (tested: dilution series starting from 1000 nM); Kd (type I horse ferritin [5]): 26 nM; signal-to-control ratio (ferritin against aldolase) (type I horse ferritin [7]): > 5
BBP mutein CD4-7B4-K23 (designed binder) DVYHDGACPEVKPVDNFDWSQYHGKWWEVAKYPNGNELRGKCGWAEYTPEGKSVKVSNYHVINTSEGFIEGTAYPVGDSKIGKIYHSLTNTGMTKENVFNVLSTDNKNYIIGYYCSWEVSKGHHDFVWVLSRSMVLTGEAKTAVENYLIGSPVVDSQKLVYSDFSEAACKVNNS	no binding (tested: 2000 nM)	169 nM	–
BBP mutein CD4-7B4-N14 (designed binder) DVYHDGACPEVKPVDNFDWSQYHGKWWEVAKYPNRAEIGGKCGWAEYTPEGKSVKVSNYHVIKQWEKFIEGTAYPVGDSKIGKIYHSLTGTGSTKENVFNVLSTDNKNYIIGYYCNYHESRKGHRDFVWVLSRSMVLTGEAKTAVENYLIGSPVVDSQKLVYSDFSEAACKVNN	no binding (tested: 2000 nM)	177 nM	–
